Reference: US20190338038A1 (CELLERANT THERAPEUTICS, published 2019)

Experiments:
[1] = target: T1, human interleukin 1 receptor accessory protein, membrane-bound form on cells (human, UniProt Q9NPH3 21-570); assay: cell-based or functional assay
T1 sequence: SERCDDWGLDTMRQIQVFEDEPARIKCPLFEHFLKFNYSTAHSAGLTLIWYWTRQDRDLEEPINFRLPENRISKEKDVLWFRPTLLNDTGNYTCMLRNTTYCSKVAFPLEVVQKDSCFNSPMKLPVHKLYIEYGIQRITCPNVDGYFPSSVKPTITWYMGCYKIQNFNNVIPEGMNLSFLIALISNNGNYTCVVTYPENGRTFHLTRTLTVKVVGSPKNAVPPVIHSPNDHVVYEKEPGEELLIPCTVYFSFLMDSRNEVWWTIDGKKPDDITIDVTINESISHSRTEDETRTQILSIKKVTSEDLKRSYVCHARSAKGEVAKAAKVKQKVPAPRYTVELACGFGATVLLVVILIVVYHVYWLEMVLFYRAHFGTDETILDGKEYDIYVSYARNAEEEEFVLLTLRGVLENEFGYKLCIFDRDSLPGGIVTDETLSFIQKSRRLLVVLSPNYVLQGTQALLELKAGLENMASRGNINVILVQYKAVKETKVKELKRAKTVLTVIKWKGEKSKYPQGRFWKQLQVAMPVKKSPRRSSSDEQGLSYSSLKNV

[2] = target: T2, recombinant mouse IL1-RAP (mouse, UniProt Q61730 21-359, limits assumed); assay: FACS (GeoMean), bar series mIL1RAP
T2 sequence (looked up): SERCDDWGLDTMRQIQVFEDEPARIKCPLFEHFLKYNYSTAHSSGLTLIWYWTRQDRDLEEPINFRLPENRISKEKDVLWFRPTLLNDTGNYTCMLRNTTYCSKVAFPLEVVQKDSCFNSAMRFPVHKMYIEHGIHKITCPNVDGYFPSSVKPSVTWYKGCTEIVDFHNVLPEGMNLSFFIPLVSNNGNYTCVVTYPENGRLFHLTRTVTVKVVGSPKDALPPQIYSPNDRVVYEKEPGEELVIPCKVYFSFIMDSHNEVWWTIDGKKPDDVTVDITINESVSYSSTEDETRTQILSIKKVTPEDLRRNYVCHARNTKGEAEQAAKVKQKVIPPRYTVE

[3] = target: human interleukin 1 receptor accessory protein, membrane-bound form on cells (human) (UniProt Q9NPH3); assay: FACS on EOL-1 cells, FITC; antibody concentration not given

Binder	% Inhibition at 10 ug/mL of IL-1β-induced NF-κB signaling, HEK-Blue IL-1β cells [1] [%]	IC50 of inhibition of IL-1β-induced NF-κB signaling, HEK-Blue IL-1β cells [1] [µg/mL]	binding result [2]	MFI [3]
anti-IL1-RAP antibody clone 54.15B5 (antibody, V domains shown, Mouse monoclonal antibody) VH: KWSWWSLGGGLAKPGGSLKLSCTASGFTFTSYVMSWVRQSPEKRLEWVAEISRGGSHTYYSDTVTGRFTISRDNANNALYLEMSSVRSADTAMYFCTRAYGNSEMDFWGQGTSVTVSS VL: QIVLTQSPAIMSASPGEKVTMTCSASSSISYIHWYRQKPGTSPKRWIYDTSNLASGVPARFSGSGSGTSYSLTIINMEAEDAATYYCHQRTYYPLTFGGGTRLELK	58.1	0.29	no binding (tested: not given)	–
anti-IL1-RAP antibody clone 42.1D3 (antibody, V domains shown, Mouse monoclonal antibody) VH: QIQLVQSGPELKKPGETVNISCKASGYTFTDFSMHWVKQAPGKGLQWMGWINTETGEPTYADDFEARFAFSLATSANTAYLKINNLKNEDTATYFCARFFLHFDYWGQGTTLTVSS VL: DIVLTQSPATLSVTPGDSVSLSCRASQSINNDLHWYQQKSHESPRLLIKYASQSISGIPSRFSGSGSGTDFTLRINSVETEDFRMYFCQQSNNWPLTFGAGTKLEVK	59	7.99	no binding (tested: not given)	–
anti-IL1-RAP antibody clone 54.8H8 (antibody, V domains shown, Mouse monoclonal antibody) VH: EVQLVESGGGLVKPGGSLKLSCAASGFSFSSYGMSWVRQSPEKRLEWVAEITSGGSHTYYPDTVTGRFTISRDNAKNTLYLEMSSLRSEDTAMYYCSRSYGNYVMDYWGQGTSVTVSS VL: QIVLTQSPAIMSASPGEKVTMTCSASSSVIYIYWFQQKPGSSPRLLIYDTSNLASGVPLRFSGSGSGTSYSLTISRMETEDVSTYYCQQWNSYPPTFGGGTKLEIK	50.8	2.05	no binding (tested: not given)	–
anti-IL1-RAP antibody clone 54.9E9 (antibody, V domains shown, Mouse monoclonal antibody) VH: QIQLVQSGPELKKPGETVKISCKASSYTFTDYSMHWVKQAPGKGLKWMGWINTETGEPRYADDFKGRFAFSLETSASTAYLQINNLKNEDTATYFCARFLLHFDYWGQGTILTVSS VL: QIVLTQSPAIMSASPGEKVTMTCSASSSVSYMHWYQQKTGTSPKRLIYDTSKLASGVPARFSGSGSGTSYSLTISSMEAEDAATYYCHQRSYYPLTFGAGAKLELK	69.1	1.3	no binding (tested: not given)	–
anti-IL1-RAP antibody clone 50.3G7 (antibody, V domains shown, Mouse monoclonal antibody) VH: QIQLVQSGPELKKPGETVKISCKASGYTFTNYGMHWVKQSPGEGLKWMGWINTYTGEPTYADDFKGRFGFSLETSASSAYLQINDLKNEDMATYFCARYYGNFDYWGQGTTLTVSS VL: DIVLTQSPATLSVTPGDSVSLSCRASQSISNNLHWYQQKSHESPRLLIKYASQSISGIPSRFSGSGSGTDFTLSINSVETEDFGVYFCQQSHNWPHTFGGGTKLEIKR	48	12.6	no binding (tested: not given)	–
46.8G1 (antibody, V domains shown, also called anti-IL1-RAP antibody clone 46.8G1) VH: QVQLQQSGPELVKPGASVKISCTASGYAFSTSWMNWVKQRPGKGLEWIGRIYPGDGDSNYNGKFKGKATLTADKSSSTAYMQLSSLTSEDSAVYFCARRDYYGFFDVWGAGTTVTVSS VL: DIQMTQSPASLSVSVGETVTITCRASENIYSNLVWYQQKQGKSPQLLVYAATNLADGVPSRFSGSGSDTQYSLKINSLQSEDFGSYYCLHFWGPPYMYTFGGGTNLEMKR	–	–	no binding (tested: not given)	–
anti-IL1-RAP antibody clone 50.6C12 (antibody, V domains shown, Mouse monoclonal antibody) VH: EVQLQQSGPELVKPGDSVKMSCKASGYTFTDYYMDWVKQSHGKSLEWIGYIYPHNGGTTYNQKFKGKATLTVDKSSSTAYMELHSLTSEDSAVYYCARSPFNYKDPMDWWGQGTSVTVSS VL: DIQMTQSPASLSASVGETVTITCRASGNIHNYLAWYQQKQGKSPHLLVYNAETLADGVPSRFSGSGSGTQYSLKINSLQPEDFGTYYCQHFWSTPWTFGGGTKLEIK	69	0.41	no binding (tested: not given)	–
anti-IL1-RAP antibody clone 46.1D2 (antibody, V domains shown, Mouse monoclonal antibody) VH: QVQLQQSGPELVKPGASVKISCKASGYGFSSSWMNWVKQRPGKGLEWIGRIYPGDGNTNYYGEFKGKATLTADKSSSTAYMQLNSLTSEDSAVYFCARNDGYPAWFTYWGQGTLVTVSA VL: DIQMTQTTSSLSASLGDRVTISCSASQGISNYLNWYQQKPDGSVKLLIYYTSTLHSGVPSRFSGSGSGTDYSLTISNLEPEDIATYYCQQYSYLPWTFGGGTKLEIK	69.2	0.13	no binding (tested: not given)	–
42.3G6 (antibody, V domains shown, also called anti-IL1-RAP antibody clone 42.3G6) VH: QIQLVQSGPELKKPGETVKISCKASGYTFTDYSMHWVKQAPEKGLKWMGWINTETGEPTYADDFKGRFAFSLETSASTAYLQINNLKNEDTATYFCARGSFPWFTYWGQGTLVTVSA VL: DIVMTQAAFSNPVTLGTSASISCRSSKSLLHSNGITYLYWYLQKPGQSPQLLIYQMSNLASGVPDRFSSSGSGTDFTLRISRVEAEDVGVYYCAQNLELPFTFGSGTKLEIK	–	–	no binding (tested: not given)	–
H54.9D7 HC1 / H54.9D7 LC1 (antibody, V domains shown) VH: QVQLVQSGAEVKKPGASVKVSCKASGYIFITYWMNWVRQAPGQGLEWMGQIFPASGTTYYAQKFQGRVTMTRDTSTSTVYMELSSLRSEDTAVYYCARTDFYRYDGGYALDYWGQGTLVTVSS VL: DIQMTQSPSSLSASVGDRVTITCRASQSVSTSGYSSMHWYQQKPGKAPKLLIYYASDLESGVPSRFSGSGSGTDFTLTISSLQPEDFATYYCHHSWGIPMYTFGQGTKLEIKR	–	–	–	4.9
h54.9D7 HC2 / h54.9D7 LC2 (antibody, V domains shown) VH: QVQLVQSGAEVKKPGASVKVSCKASGYIFITYWMNWVRQAPGQGLEWVGQIFPASGTTYYAQKFQGRVTMTVDTSTSTVYMELSSLRSEDTAVYYCARTDFYRYDGGYALDYWGQGTLVTVSS VL: DIQLTQSPSSLSASVGDRATITCRASQSVSTSGYSSMHWYQQKPGKAPKLLIYYASDLESGVPSRFSGSGSGTDFTLTISSVQPEDFATYYCHHSWGIPMYTFGQGTKLEIKR	–	–	–	5.69
h54.9D7 HC2 / h54.9D7 LC1 (antibody, V domains shown) VH: QVQLVQSGAEVKKPGASVKVSCKASGYIFITYWMNWVRQAPGQGLEWVGQIFPASGTTYYAQKFQGRVTMTVDTSTSTVYMELSSLRSEDTAVYYCARTDFYRYDGGYALDYWGQGTLVTVSS VL: DIQMTQSPSSLSASVGDRVTITCRASQSVSTSGYSSMHWYQQKPGKAPKLLIYYASDLESGVPSRFSGSGSGTDFTLTISSLQPEDFATYYCHHSWGIPMYTFGQGTKLEIKR	–	–	–	5.25
Chi54.9D7 HC#1 / h54.9D7 LC1 (antibody, V domains shown) VH: HVQLQQSGPELVRPGASVKLSCKASGYIFITYWMNWVKQRPGQGLEWVGQIFPASGTTYYNELFEGKATLTVDTSSNTAYMHLTSLTSEDSAVYYCARTDFYRYDGGYALDYWGQGTSLTVSS VL: DIQMTQSPSSLSASVGDRVTITCRASQSVSTSGYSSMHWYQQKPGKAPKLLIYYASDLESGVPSRFSGSGSGTDFTLTISSLQPEDFATYYCHHSWGIPMYTFGQGTKLEIKR	–	–	–	7.96
H54.9D7 HC3 / H54.9D7 LC1 (antibody, V domains shown) VH: QVQLVQSGAEVKKPGASVKLSCKASGYIFITYWMNWVRQAPGQGLEWVGQIFPASGTTYYAQKFQGRATLTVDTSTSTAYMELSSLRSEDTAVYYCARTDFYRYDGGYALDYWGQGTLLTVSS VL: DIQMTQSPSSLSASVGDRVTITCRASQSVSTSGYSSMHWYQQKPGKAPKLLIYYASDLESGVPSRFSGSGSGTDFTLTISSLQPEDFATYYCHHSWGIPMYTFGQGTKLEIKR	–	–	–	4.86
h54.9D7 HC3 / h54.9D7 LC2 (antibody, V domains shown) VH: QVQLVQSGAEVKKPGASVKLSCKASGYIFITYWMNWVRQAPGQGLEWVGQIFPASGTTYYAQKFQGRATLTVDTSTSTAYMELSSLRSEDTAVYYCARTDFYRYDGGYALDYWGQGTLLTVSS VL: DIQLTQSPSSLSASVGDRATITCRASQSVSTSGYSSMHWYQQKPGKAPKLLIYYASDLESGVPSRFSGSGSGTDFTLTISSVQPEDFATYYCHHSWGIPMYTFGQGTKLEIKR	–	–	–	5.49
h54.9D7 HC1 / h54.9D7 LC2 (antibody, V domains shown) VH: QVQLVQSGAEVKKPGASVKVSCKASGYIFITYWMNWVRQAPGQGLEWMGQIFPASGTTYYAQKFQGRVTMTRDTSTSTVYMELSSLRSEDTAVYYCARTDFYRYDGGYALDYWGQGTLVTVSS VL: DIQLTQSPSSLSASVGDRATITCRASQSVSTSGYSSMHWYQQKPGKAPKLLIYYASDLESGVPSRFSGSGSGTDFTLTISSVQPEDFATYYCHHSWGIPMYTFGQGTKLEIKR	–	–	–	5.14
